Here are results for one molecule from patent publication US8034783B2, “Prodomain modulators of ADAM 10” (Biozyme, Inc., priority 2006, dated 2011).

Assay [1] deals with T1, human ADAM 9 catalytic/disintegrin domains (Homo sapiens, UniProt Q13443).
T1 construct: human ADAM 9 catalytic/disintegrin domains activity; purchased R & D Systems (Minneapolis, Minn., USA)
T1 sequence (Q13443 206-697 limits assumed): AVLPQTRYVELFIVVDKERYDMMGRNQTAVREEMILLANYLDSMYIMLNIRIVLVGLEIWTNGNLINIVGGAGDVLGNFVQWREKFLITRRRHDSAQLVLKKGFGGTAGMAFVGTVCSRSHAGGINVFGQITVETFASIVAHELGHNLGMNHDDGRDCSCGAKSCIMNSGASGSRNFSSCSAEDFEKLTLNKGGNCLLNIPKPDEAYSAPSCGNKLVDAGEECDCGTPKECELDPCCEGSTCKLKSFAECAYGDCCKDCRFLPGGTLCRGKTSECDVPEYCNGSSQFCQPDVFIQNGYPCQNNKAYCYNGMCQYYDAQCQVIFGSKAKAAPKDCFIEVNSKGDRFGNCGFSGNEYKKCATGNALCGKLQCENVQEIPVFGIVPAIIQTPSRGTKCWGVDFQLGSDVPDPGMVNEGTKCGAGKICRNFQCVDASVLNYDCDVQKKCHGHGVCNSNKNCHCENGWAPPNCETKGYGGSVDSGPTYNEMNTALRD
In words: Inhibition assay with ADAM 9. It is filed as biochemical. Particulars: read-out: inhibition constant, ADAM 9 (human). Here is the method:
Inhibition assays with ADAM 9. The fluorescent substrate, Dabcyl-PchaGC(Me)HAK(Fam)-NH2 (SEQ ID NO 19) (10 μM), in a buffer containing 25 mM Tris, pH 8.0, 0.0006% Brij-35, was used to measure human ADAM 9 catalytic/disintegrin domains activity. The ADAM 9 was provided as a 0.1 μg/μl stock solution, from which 3 μl was added to start the reaction in the absence or presence of ADAM10 prodomain (78-5000 nM). Fluorescence intensities were measured every 10-20 minutes at excitation and emission wavelengths of 485 and 530 nm respectively.
(§1) Calculation of inhibition constants. The amount of activity was calculated by subtracting the ADAM 10 prodomain control from the ADAM 10 prodomain with enzyme. All inhibition assays were performed at room temperature and the data fit to the following equation using Sigma Plot software:
(§2) [formula] where If is fractional inhibition, I is the inhibitor concentration and Ki is the inhibition constant.

A further assay has as its target T2, ADAM 10 (human) Cat/Dis (Homo sapiens, UniProt O14672).
T2 construct: containing the catalytic/disintegrin domains; purchased R & D Systems (Minneapolis, Minn., USA)
T2 sequence (O14672 214-672 limits assumed): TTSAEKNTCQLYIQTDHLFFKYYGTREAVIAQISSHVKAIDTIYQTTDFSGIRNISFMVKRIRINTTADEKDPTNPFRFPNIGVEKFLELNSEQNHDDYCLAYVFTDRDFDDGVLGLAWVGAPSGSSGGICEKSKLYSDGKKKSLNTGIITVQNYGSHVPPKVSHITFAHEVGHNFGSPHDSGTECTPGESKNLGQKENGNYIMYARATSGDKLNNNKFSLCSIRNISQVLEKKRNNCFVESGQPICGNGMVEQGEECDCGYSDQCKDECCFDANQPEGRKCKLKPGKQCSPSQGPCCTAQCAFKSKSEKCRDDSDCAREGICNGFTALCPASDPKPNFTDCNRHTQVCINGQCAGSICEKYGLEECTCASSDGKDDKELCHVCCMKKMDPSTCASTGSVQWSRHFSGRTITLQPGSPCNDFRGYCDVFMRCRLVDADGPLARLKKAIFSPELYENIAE
In words: Inhibition assay with ADAM10 catalytic/disintegrin construct, fluorescent substrate. It is filed as biochemical. Particulars: room temperature, 10 μM fluorescent substrate; read-out: inhibition constant (Ki), ADAM 10 (human) Cat/Dis. Here is the method: Inhibition assays with TACE and ADAM 10. Activity of TACE catalytic/disintegrin, TACE catalytic, or ADAM10 catalytic/disintegrin constructs was monitored at 3 minute intervals using the fluorescent substrate, Dabcyl-LAQAHomoPheRSC(Fluorescein)-NH2 (SEQ ID NO 17) with excitation 485 nm and emission 530 nm. The substrate was diluted from a 10 mM stock in DMSO to 10 μM in assay buffer containing 20 mM Tris, pH 8.0, and 0.0006% Brij-35. Reactions were run in a 96-well black-coated plate with either ADAM10 prodomain (10 nM-1.0 μM) alone or with enzyme. Concentrations of enzyme ranged from 0.5-2.0 nM for TACE and 5-15 nM for ADAM10. For assays with TACE and ADAM8 prodomain, the range of concentrations varied from 1-4.7 μM.
as §1, §2
Wild type ADAM 10 prodomain (23-213) was tested to determine the mode of inhibition of ADAM 10 protein. ADAM 10 protein was diluted 1:100 in buffer 25 mM Tris pH 8, 0.0006% Brij-35 and then 10 μl was added to 88 μl of substrate (20-100 μM), Dabcyl-LAQAHomoPheRSC(Fluorescein)-NH2 with excitation 485 nm and emission 530 nm. Prodomain, 2 μl, in 25 mM Tris, pH 8, 100 mM NaCl, 10% glycerol, 0.1% mercaptoethanol, and 50 μM CaCl2 was added to substrate before addition of enzyme. The final concentration of prodomain ranged from 17-170 nM. The fluorescence vs time was plotted, and slopes were taken from straight line fits of initial velocities. The reciprocal of the velocities was plotted vs the reciprocal of substrate squared since the normal Lineweaver Burke plot gave curved lines. The initial velocities vs substrate concentrations were fit as a family of curves to several allosteric models.

Some results are limits rather than exact numbers.

B1: C173S ProADAM 10 23-213 (C-terminal His tag): mouse ADAM 10 prodomain 23-213 with cysteine 173 mutated to serine, C-terminal His tag (protein, UniProt O35598 23-213, looked up, variant C173S)
chain: NPLNKYIRHYEGLSYNVDSLHQKHQRAKRAVSHEDQFLLLDFHAHGRQFNLRMKRDTSLFSDEFKVETSNKVLDYDTSHIYTGHIYGEEGSFSHGSVIDGRFEGFIKTRGGTFYIEPAERYIKDRILPFHSVIYHEDDINYPHKYGPQGGSADHSVFERMRKYQMTGVEEGARAHPEKHAASSGPELLRKK
modifications: pro-form C-terminal His tag
notes: mouse ADAM 10 prodomain 23-213 with cysteine 173 mutated to serine, C-terminal His tag
For B1, the Ki is above 1000 nM in assay [1] and 36 ± 9 nM with ADAM 10 (human) Cat/Dis.
